# No end group written: not given here.
# Experiments:
# binding of CTLA4 to B7-1 = target: T1, binding of CTLA4 to B7-1 (Homo sapiens, UniProt P16410); assay: Test for evaluating binding inhibitory properties between CTLA4 and B7-1 (BPS #72009 inhibitor screening assay kit, chemiluminescence); details: peptide concentration 5 μM and/or 10 μM as in Table 2; plate-coated CTLA4, biotin-labeled B7-1; n=2 wells; versus no peptide added
# T1 construct: purchased BPS Bioscience BPS #72009
# T1 sequence (P16410 36-161 limits assumed): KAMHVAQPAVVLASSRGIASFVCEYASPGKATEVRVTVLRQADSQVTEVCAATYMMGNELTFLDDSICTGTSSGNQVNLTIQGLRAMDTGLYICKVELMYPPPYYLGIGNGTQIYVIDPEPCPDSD
# Experimental: The binding inhibitory properties between CTLA4 and B7-1 were evaluated for the 6 kinds of sample peptides synthesized in the above-described Test Example 1.
# In this test, Test Examples 2-1 to 2-9 were set according to the kinds of sample peptide used and the peptide concentration as shown in Table 2 below. In addition, a peptide-free group was set as Test Example 2-10. The tests of the above-described 10 categories in total were carried out as follows. The numbers “1 to 10” shown in the “No.” column of Table 2 represent “Test Examples 2-1 to 2-10” in Test Example 2. In addition, the number (n) of test wells in each of the above-described examples was set to 2.
# In Test Example 2-1, the following kit currently available on the market was used. CTLA4 B7-1 (Biotinylated) inhibitor screening assay kit (manufactured by BPS Bioscience, BPS #72009)
# The operation for this test example was based on “ASSAY PROTOCOL” described in the data sheet of the above-described kit. A brief procedure is shown below.
# First, each well of a 96-well plate was coated with CTLA4. Specifically, a CTLA4 solution (2 μg/mL) was dispensed into each well of the 96-well plate, and the plate was incubated overnight at 4° C.
# Subsequently, the CTLA4 solution was removed, and each well was washed.
# Subsequently, blocking was performed. Specifically, a blocking buffer contained in the kit was dispensed into each well, and the plate was incubated for 1 hour at room temperature.
# Subsequently, a solution of the Sample 1 was dispensed into each well, and the plate was incubated for 1 hour at room temperature.
# Subsequently, a biotin-labeled B7-1 solution (1.25 ng/mL) was dispensed into each well of the 96-well plate, and the plate was incubated for 2 hours at room temperature.
# After the above-described incubation, the peptide solution was removed, and each well was washed. […]
# Subsequently, the blocking buffer was removed, a chemiluminescent reagent contained in the above-described kit was dispensed into each well, and the chemiluminescence intensity in each well was measured with a luminometer. […]
# binding of CTLA4 to B7-2 = target: T2, binding of CTLA4 to B7-2 (Homo sapiens, UniProt P16410); assay: Test for evaluating binding inhibitory properties between CTLA4 and B7-2 (BPS #79658 inhibitor screening assay kit, chemiluminescence); details: peptide concentration 5 μM and/or 10 μM as in Table 2; plate-coated CTLA4, biotin-labeled B7-2; n=2 wells; versus no peptide added
# T2 construct: purchased BPS Bioscience BPS #79658
# T2 sequence (P16410 36-161 limits assumed): T1 sequence (P16410 36-161 limits assumed)
# Experimental: The binding inhibitory properties between CTLA4 and B7-2 were evaluated for the 6 kinds of sample peptides synthesized in the above-described Test Example 1.
# In this test, Test Examples 3-1 to 3-9 were set according to the kind of sample peptide used and the peptide concentration as shown in Table 2 mentioned above. In addition, a peptide-free group was set as Test Example 3-10. The tests of the above-described 10 categories in total were carried out as follows. The numbers “1 to 10” shown in the “No.” column of Table 2 represent “Test Examples 3-1 to 3-10” in Test Example 3. In addition, the number (n) of test wells in each of the above-described examples was set to 2.
# In Test Example 3-1, the following kit currently available on the market was used. CTLA4 B7-2 (Biotinylated) inhibitor screening assay kit (BPS #79658)
# The operation for this test example was based on “ASSAY PROTOCOL” described in the data sheet of the above-described kit.
# Test Example 3-1 was performed using the same materials and processes as those of Test Example 2-1 except that the above-described kit was used.
"suppression of binding of CTLA4 to B7-2 (chemiluminescence intensity, FIG. 2) (binding of CTLA4 to B7-2)",Sequence,"suppression of binding of CTLA4 to B7-1 (chemiluminescence intensity, FIG. 1) (binding of CTLA4 to B7-1)"
,MQIPQAPWPVVWAVLQLGWRMQIPQAPWRPVVWAVLQLGW [Sample 5],no action of suppressing the binding of CTLA4 to B7-1 was observed
not suppressed,KKRTLRKNDR KKR (KKRTLRKNDRKKR-NH2) [Sample 6],not suppressed
,MQIPQAPWPVVWAVLQLGWR (MQIPQAPWPVVWAVLQLGWR-NH2) [Sample 4],no action of suppressing the binding of CTLA4 to B7-1 was observed

# — patent publication US11780903B2, “Peptide suppressing binding of CTLA4 to B7 proteins, and use thereof” (TOAGOSEI CO., LTD., priority 2020, dated 2023)
